# B1: interferon gamma: immunoactivator cytokine (protein, UniProt P01579 24-161, looked up)
# Interferon gamma: QDPYVKEAENLKKYFNAGHSDVADNGTLFLGILKNWKEESDRKIMQSQIVSFYFKLFKNFKDDQSIQKSVETIKEDMNVKFFNSNKKKRDDFEKLTNYSVTDLNVQRKAIHELIQVMAELSPAAKTGKRKRSQMLFRG
# Tested on: PD-L1 expression on cancer cell lines MC38-luc and LL2-luc
# Assay: Flow-cytometric analysis of PD-L1 expression with or without interferon gamma
# Format: cell-based
# Details: cell culture, 20 ng/ml or 50 ng/ml IFNgamma
# Procedure: FIG. 12: Flow cytometry analysis showing PD-L1 expression in cancer cell lines before and after stimulation with 20 ng/ml or 50 ng/ml IFNgamma (IFNγ).
molecule,measurement,setting,value
B1,PD-L1 expression,,conditionally enhanced the expression of PD-L1
same,PD-L1 expression,listed as IFN-gamma,PD-L1 expression increases

# — patent US20240101685A1, “NEAR INFRARED PHOTOIMMUNOTHERAPY (NIR-PIT) COMBINATION THERAPY TO TREAT CANCER” (THE UNITED STATES OF AMERICA, as represented by the …, priority 2021, published 2024)
